Experimental data as given in the supplement of paper PMC9170038.

System: MS2 coat protein
Test: apparent KD of MS2 coat protein; designed switch direction (-1 OFF switch, 1 ON switch): 1; higher = weaker reporter binding
Method in brief: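 Three titration conditions were used: no input, 200 uM small-molecule ligand, and an oligonucleotide input. In each, SNAP-549-labelled MS2 coat protein was raised from 0.7 or 1.5 nM, doubling, to 3 µM over designed RNA switches transcribed on Illumina chips by stalled E. coli RNA polymerase. Curve fits of normalised cluster fluorescence gave values whose per-design median over clusters is the apparent KD.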

[1] = input ligand: microRNA oligo, concentration not stated
[2] = Eterna round: R95, input ligand: FMN 200 uM
[3] = Eterna round: R95, input ligand: microRNA oligo, concentration not stated
[4] = Eterna round: R95, input ligand: none

Sequence | apparent KD of MS2 coat protein (input ligand: FMN 200 uM) [nM] | apparent KD of MS2 coat protein [1] [nM] | apparent KD of MS2 coat protein (input ligand: none) [nM] | apparent KD of MS2 coat protein [2] [nM] | apparent KD of MS2 coat protein [3] [nM] | apparent KD of MS2 coat protein [4] [nM]
UCGAGCGUACUUGCAGACAUGAGGAUCACCCAUGUAAAUGGGAAGGAUAUGGUACCGUUUCGGUACCAGAAGGUCCUAAGUGUU [salish99_SSNG3_r04_303] (Eterna round: R96, puzzle: Same State NG 3) | 616 | 146 | 493 | – | – | –
GCCGCGUUUCGCGCCUACAUGAGGAUCACCCAUGUUUGUGGGCAGGAUAUCGUCCGCUCUGCGGGCGAGAAGGGCUGUUGUGGU [salish99_SSNG3_R04_026] (Eterna round: R96, puzzle: Same State NG 3) | – | 40.9 | – | – | – | –
ACAUGAGACCUAGGAUAUCUUGUACCUACAUGUGACAUGAGGAUCACCCAUGUGGUAAGUAUGAGAGAGAAGGAGGAGAUAUGU [Equivalance 54 - Jieux - Same State NG 2] (Eterna round: R96, puzzle: Same State NG 2) | 15.4 | 12.3 | 17.6 | – | – | –
ACAUGAGAUAGAGGAUAUGUUGUACCUACAUGUGACAUGAGGAUCACCCAUGUGGUAAGUAUGAUACAGAAGGCUAAGAUAUGU [Equivalance 60 - Jieux - Same State NG 2] (Eterna round: R96, puzzle: Same State NG 2) | 16.5 | 19.1 | 30.1 | – | – | –
UUUGAAUUGCAAGGAUAUCUUAUUUAGAUUUUAAGAGAAGGUGCUUUACAGUUACAUGAGGAUCACCCAUGUCUUUCUUUUUAU [JR_SSNG1_Sub063] (Eterna round: R96, puzzle: Same State NG 1) | – | 19.3 | – | – | – | –
GGACGUCGAUAAUAUAAUCUCACAUGAGGAUCACCCAUGUCACAGGAUAUGGAUCCUAAUUGGAUCCAGAAGGGUGCGACGUCC [Fiskers NG3ss - 35] (Eterna round: R96, puzzle: Same State NG 3) | 73.3 | 235 | 373 | – | – | –
GGUCCAGCCUGAGCUGGACAAAAGCAUGUACAUGAGGAUCACCCAUGUUCAUGUACAAGCUUUUUGCUCGUCUUACC [salish99_208a_r3_090x] (puzzle: Sensor for hsa-mir-208a) | – | – | – | 570 | 15.9 | 823
GGUGCGAAUAAAGCCUACAUGAGGAUCACCCAUGUAUGUAGGCAGGAUAUCGUUUGCUUUGCAAACGAGAAGGGCUGUCGCACC [JL SSNG3 1.16] (Eterna round: R96, puzzle: Same State NG 3) | 21.9 | 49 | 70.7 | – | – | –
ACAUGAGAUUUAGGAUAUAUAGUACCUACAUGUGACAUGAGGAUCACCCAUGUGGUAAGUAUGACAUAGAAGGAAAAGAUAUGU [Equivalance 98 - Jieux - Same State NG 2] (Eterna round: R96, puzzle: Same State NG 2) | – | 47.9 | – | – | – | –
GUACAGAUUAUAGGAUAUCACGUCGUUUAGACGUGAGAAGGAUAAUCACACAUGAAUAUUAAUACAUGAGGAUCACCCAUGUAC [SSNG1/17-A3] (Eterna round: R96, puzzle: Same State NG 1) | 18.4 | 17.5 | 18.5 | – | – | –
ACAUGAGAGUUAGGAUAUCUUGUACCUACAUGUGACAUGAGGAUCACCCAUGUGGUAAGUAUGAGGGAGAAGGGACAGAUAUGU [Equivalence 44 - Jieux - Same State NG 2] (Eterna round: R96, puzzle: Same State NG 2) | 67.4 | 54.4 | 84.7 | – | – | –
UUAUUCUAUAUAGGAUAUUGAUGCAAUUUACCUCAAGAAGGAUAUACAUGAGGAUCACCCAUGUUGGAUAGGGUUAGUUUGUUU [JR_SSNG1_Sub081] (Eterna round: R96, puzzle: Same State NG 1) | – | 56 | – | – | – | –
UGAGCCGGCACUGAGGAUAUUCAUAAUAAAACAUGAGGAUCACCCAUGUAGGCCAGAAGGCCUUGGGAGAAGGCAGGUCGGCUCA [Mat - Same State 2 - Mod of UCT - D71] (puzzle: Same State 2) | – | – | – | 16.7 | 134 | 247
UGUCCAGCCUGAGCUGGACAAAAGCAUGUACAUGAGGAUCACCCAUGUUCAUGUACAAGCUUUUUGCUCGUCUUAGC [salish99_208a_r3_067] (puzzle: Sensor for hsa-mir-208a) | – | – | – | 624 | 13.6 | 547
GCCGGCUGAUGAGGAUAUGGCACCUUAUUGGUGCCAGAAGGCAUGUCAAUUGACAUGAGGAUCACCCAUGUAUUAUAGUUGGCG [salish99_SSNG1_r04_604] (Eterna round: R96, puzzle: Same State NG 1) | 117 | 233 | 326 | – | – | –
GCUCGAAUCAAAACCAACAUGAGGAUCACCCAUGUAUGUUGGUAGGAUAUCGUUUGCUUUGCAAACGAGAAGGGCCAAACGAGC [SameState NG3 #3] (Eterna round: R96, puzzle: Same State NG 3) | 69.2 | 121 | 127 | – | – | –
UGGUACAUGGGAGGAUAUGGGCAUGAGACAUGAGGAUCACCCAUGUAUUAAAAGCCGAGAGGCAUCUAGAAGGCCCAUGUACCU [JL SSNG1 3.89] (Eterna round: R96, puzzle: Same State NG 2) | 15.8 | 80.2 | 158 | – | – | –
AAACAUGAGCGAGGAUAUACGGAGGAUCACCCUGUAGAAGGCGCAUGUAAAACAACAUGAGGAUCACCCAUGUCAUGUACAUGA (Eterna round: R96, puzzle: Same State NG 1) | 24.8 | 23.4 | 33.6 | – | – | –
GCUCGACGUAUUGUCUACAUGAGGAUCACCCAUGUAGGUGCGGAGGAUAUUUACGUGUCUCAUGUAGAGAAGGUCGUGUCGAGC [SameState NG3 #95] (Eterna round: R96, puzzle: Same State NG 3) | 912 | 47.4 | 46.8 | – | – | –
CCCUGAGGUAGCCCACAGGGACAUGAGGAUCACCCAUGUACACAGGAUAUCGAGGGCUCCGCCUUCGAGAAGGGUGAUCAAACU [Geditedi] (Eterna round: R96, puzzle: Same State NG 3) | 148 | 18.2 | 53.4 | – | – | –
AUUUAACAAGCUUUUUGCUCGUCUUAUAAACAUGAGGAUCACCCAUGUAAUAGCGUGAGAGUAAAUAUUUAAAUAAU [JMF 93] (puzzle: Sensor for hsa-mir-208a) | – | – | – | 14.5 | 48.3 | 11.1
GAGGGACAGACCAACAUGAGGAUCACCCAUGUCCUCGCAGGUCAGGAUAUCAUGAGGAUCACCCAUGAGAAGGGACGGUGAACC (Eterna round: R96, puzzle: Same State NG 3) | 155 | 125 | 149 | – | – | –
AUAAAACAUGAGGAUCACCCAUGUCUCCAAAGUCGAGGAUAUGGGCAAAUAAUAUAAGAACCAGAAGGCGAAUAAU [SS1 Teenbexe 2] (puzzle: Same State 1) | – | – | – | 177 | 179 | 374
GCCGGACCGGAAGGAUAUGUUCCCGGUGCAGCGGGAGACAUGAGGAUCACCCAUGUACUAUAACGACAGAAGGUCCAACCAGCG [Eternabot solution 21] (Eterna round: R96, puzzle: Same State NG 2) | 18.7 | 16.4 | 22.5 | – | – | –
UGGCUCAGAGCAGGAUAUAUGCGAUCACAUGAGGAUCACCCAUGUCUCGAGCUUCGGCUCGAGGCAUAGAAGGGCUCUGAGCCU [SSNG2/4-B3] (Eterna round: R96, puzzle: Same State NG 2) | 14.9 | 32.6 | 45.5 | – | – | –
AAAAUAAAUGCGAAAAUUAACCGCAACUGACAUGAGGAUCACCCAUGUGCUUCAAGCUCAGGCAUCUCUUAUCGUCA [Maares] (Eterna round: R96, puzzle: Sensor for hsa-mir-208a) | 112 | 67.9 | 105 | – | – | –
UCUUGGUUUUUGCUCGUUUUUUGUGUUGAACAUGAGGAUCACCCAUGUAUUGUACGGUCCGGUUUAGUAAUGGUCCG [JMF 11] (puzzle: Sensor for hsa-mir-208a) | – | – | – | 24.8 | 15.1 | 25
GUGCUCGUGUGAGGAUAUGCUUCCGUUUCGGCUGCAGAAGGUACUAUUAUACAUGAGGAUCACCCAUGUCUCUUUUGUUUGGUG [salish99_SSNG1_r04_910] (Eterna round: R96, puzzle: Same State NG 1) | 95 | 51.9 | 67.8 | – | – | –
GCUCGAUGAGCGAUUUACAUGAGGAUCACCCAUGUACGUGGGCAGGAUAUUUACGUGCUUUGUGUAGAGAAGGGCCCAUCGAGC [SameState NG3 #72] (Eterna round: R96, puzzle: Same State NG 3) | 107 | 309 | 546 | – | – | –
AGCUAUUAAUCAGGAUAUAGGGACAUGAGGAUCACCCAUGUAUACAUGAUGAAAUGUGGUCACGUCUAGAAGGGAUUACUAACA [SameState NG2 #41] (Eterna round: R96, puzzle: Same State NG 2) | 150 | 184 | 262 | – | – | –
